From patent US20200040059A1

What follows are substances tested against PD-1 (human) (assay: cell-based or functional assay).

Sequence of Full length ECD of PD-L2 (ligand) (Q9BQ51 20-220): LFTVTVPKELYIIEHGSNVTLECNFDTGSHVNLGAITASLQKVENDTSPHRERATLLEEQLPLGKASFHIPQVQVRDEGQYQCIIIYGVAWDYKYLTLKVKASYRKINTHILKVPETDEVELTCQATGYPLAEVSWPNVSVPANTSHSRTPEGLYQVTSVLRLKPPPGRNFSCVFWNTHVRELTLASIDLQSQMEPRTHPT

In order of falling IFN gamma levels pg/mL, MLR:
1. PD-L2 IgV-Fc H15Q, C23S, I86T (Fc fusion)  1850 pg/mL
2. PD-L2 IgV-Fc G28V, Q72H, R76G, I86T (Fc fusion)  1780 pg/mL
3. PD-L2 IgV-Fc H15Q, R76G, I85F (SEQ ID NO 1500) (Fc fusion)  1730 pg/mL
4. PD-L2 IgV-Fc H15Q, T47A, H69L, Q82R, V89D (Fc fusion)  1730 pg/mL
5. PD-L2 IgV-Fc H15Q, T47A (Fc fusion)  1640 pg/mL
6. PD-L2 IgV-Fc H15Q, T47A, Q72H, R76G, I86T (Fc fusion)  1600 pg/mL
7. PD-L2 IgV-Fc E44D, V89D, W91R (Fc fusion)  1560 pg/mL
8. PD-L2 IgV-Fc E59G, Q82R (Fc fusion)  1510 pg/mL
9. PD-L2 IgV-Fc H15Q, K65R (Fc fusion)  1510 pg/mL
10. PD-L2 IgV-Fc E44D (Fc fusion)  1500 pg/mL
11. PD-L2 IgV-Fc H15Q, L33H, S67L, R76G, Q82R, V89D (Fc fusion)  1500 pg/mL
12. PD-L2 IgV-Fc H15Q, T47A, Q72H, R76G (Fc fusion)  1460 pg/mL
13. PD-L2 IgV-Fc H15Q, R76G, I85F (SEQ ID NO 1505) (Fc fusion)  1440 pg/mL
14. PD-L2 IgV-Fc H15Q, S67L, R76G (Fc fusion)  1430 pg/mL
15. PD-L2 IgV-Fc H15Q, S39I, I86T (Fc fusion)  1420 pg/mL
16. PD-L2 IgV-Fc H15Q, E44D, R76G, I85F (Fc fusion)  1390 pg/mL
17. PD-L2 IgV-Fc H15Q, T47A, K65R, S67L, Q82R, V89D (Fc fusion)  1340 pg/mL
18. PD-L2 IgV-Fc H15Q, S67L, R76G, I85F (Fc fusion)  1320 pg/mL
19. PD-L2 IgV-Fc H15Q, T47A, Q82R (Fc fusion)  1320 pg/mL
20. PD-L2 IgV-Fc H15Q, L33P, T47A, S67L, P71S, V89D (Fc fusion)  1290 pg/mL
21. PD-L2 IgV-Fc H15Q, N32D, S67L, V89D (Fc fusion)  1290 pg/mL
22. PD-L2 IgV-Fc E44D, S67L, Q72H, Q82R, V89D (Fc fusion)  1280 pg/mL
23. PD-L2 IgV-Fc H15Q, Q72H, V89D (Fc fusion)  1270 pg/mL
24. PD-L2 IgV-Fc H15Q, S39I, S67L, V89D (Fc fusion)  1230 pg/mL
25. Full length ECD of PD-L2 (ligand)  1170 pg/mL
26. PD-L2 IgV-Fc F2L, H15Q, D46E, T47A, Q72H, R76G, Q82R, V89D (Fc fusion)  1170 pg/mL
27. PD-L2 IgV-Fc H15Q, N24S, T47A, Q72H, R76G, V89D (Fc fusion)  1090 pg/mL
28. PD-L2 IgV-Fc H15Q, Q82R, V89D (Fc fusion)  1080 pg/mL
29. PD-L2 IgV-Fc H15Q, N18D, T47A, Q72H, V73A, R76G, I86T, V89D (Fc fusion)  1070 pg/mL
30. PD-L2 IgV-Fc H15Q, S67L, Q72H, R76G, V89D (Fc fusion)  1060 pg/mL
31. PD-L2 IgV-Fc H15Q, S67L, I86T (Fc fusion)  1030 pg/mL
32. PD-L2 IgV-Fc H15Q, S39I, E44D, Q72H, V75G, R76G, Q82R, V89D (Fc fusion)  941 pg/mL
33. PD-L2 IgV-Fc H15Q, Q72H, Q74R, R76G, I86T (Fc fusion)  934 pg/mL

In order of rising Fold increase over wildtype PD-L2 IgV-Fc, MLR IFN gamma:
1. PD-L2 IgV-Fc H15Q, Q72H, Q74R, R76G, I86T (Fc fusion)  0.68 fold
2. PD-L2 IgV-Fc H15Q, S39I, E44D, Q72H, V75G, R76G, Q82R, V89D (Fc fusion)  0.68 fold
3. PD-L2 IgV-Fc H15Q, S67L, I86T (Fc fusion)  0.75 fold
4. PD-L2 IgV-Fc H15Q, N18D, T47A, Q72H, V73A, R76G, I86T, V89D (Fc fusion)  0.77 fold
5. PD-L2 IgV-Fc H15Q, S67L, Q72H, R76G, V89D (Fc fusion)  0.77 fold
6. PD-L2 IgV-Fc H15Q, N24S, T47A, Q72H, R76G, V89D (Fc fusion)  0.79 fold
7. PD-L2 IgV-Fc H15Q, Q82R, V89D (Fc fusion)  0.79 fold
8. PD-L2 IgV-Fc F2L, H15Q, D46E, T47A, Q72H, R76G, Q82R, V89D (Fc fusion)  0.85 fold
9. PD-L2 IgV-Fc H15Q, S39I, S67L, V89D (Fc fusion)  0.89 fold
10. PD-L2 IgV-Fc H15Q, Q72H, V89D (Fc fusion)  0.92 fold
11. PD-L2 IgV-Fc E44D, S67L, Q72H, Q82R, V89D (Fc fusion)  0.93 fold
12. PD-L2 IgV-Fc H15Q, N32D, S67L, V89D (Fc fusion)  0.93 fold
13. PD-L2 IgV-Fc H15Q, L33P, T47A, S67L, P71S, V89D (Fc fusion)  0.94 fold
14. PD-L2 IgV-Fc H15Q, S67L, R76G, I85F (Fc fusion)  0.96 fold
15. PD-L2 IgV-Fc H15Q, T47A, Q82R (Fc fusion)  0.96 fold
16. PD-L2 IgV-Fc H15Q, T47A, K65R, S67L, Q82R, V89D (Fc fusion)  0.97 fold
17. PD-L2 IgV-Fc H15Q, E44D, R76G, I85F (Fc fusion)  1.01 fold
18. PD-L2 IgV-Fc H15Q, S39I, I86T (Fc fusion)  1.03 fold
19. PD-L2 IgV-Fc H15Q, R76G, I85F (SEQ ID NO 1505) (Fc fusion)  1.04 fold
20. PD-L2 IgV-Fc H15Q, S67L, R76G (Fc fusion)  1.04 fold
21. PD-L2 IgV-Fc H15Q, T47A, Q72H, R76G (Fc fusion)  1.06 fold
22. PD-L2 IgV-Fc E44D (Fc fusion)  1.09 fold
23. PD-L2 IgV-Fc H15Q, L33H, S67L, R76G, Q82R, V89D (Fc fusion)  1.09 fold
24. PD-L2 IgV-Fc E59G, Q82R (Fc fusion)  1.1 fold
25. PD-L2 IgV-Fc H15Q, K65R (Fc fusion)  1.1 fold
26. PD-L2 IgV-Fc E44D, V89D, W91R (Fc fusion)  1.13 fold
27. PD-L2 IgV-Fc H15Q, T47A, Q72H, R76G, I86T (Fc fusion)  1.16 fold
28. PD-L2 IgV-Fc H15Q, T47A (Fc fusion)  1.19 fold
29. PD-L2 IgV-Fc H15Q, R76G, I85F (SEQ ID NO 1500) (Fc fusion)  1.25 fold
30. PD-L2 IgV-Fc H15Q, T47A, H69L, Q82R, V89D (Fc fusion)  1.26 fold
31. PD-L2 IgV-Fc G28V, Q72H, R76G, I86T (Fc fusion)  1.29 fold
32. PD-L2 IgV-Fc H15Q, C23S, I86T (Fc fusion)  1.34 fold
